Consider eleven variants from IntAct's records for PubMed 29039417.

B1: BBSome complex member BBS4 (Homo sapiens), Q96RK4 (parent)
chain: MAEERVATRTQFPVSTESQKPRQKKAPEFPILEKQNWLIHLHYIRKDYEACKAVIKEQLQETQGLCEYAIYVQALIFRLEGNIQESLELFQTCAVLSPQSADNLKQVARSLFLLGKHKAAIEVYNEAAKLNQKDWEISHNLGVCYIYLKQFNKAQDQLHNALNLNRHDLTYIMLGKIHLLEGDLDKAIEVYKKAVEFSPENTELLTTLGLLYLQLGIYQKAFEHLGNALTYDPTNYKAILAAGSMMQTHGDFDVALTKYRVVACAVPESPPLWNNIGMCFFGKKKYVAAISCLKRANYLAPFDWKILYNLGLVHLTMQQYASAFHFLSAAINFQPKMGELYMLLAVALTNLEDIENAKRAYAEAVHLDKCNPLVNLNYAVLLYNQGEKKNALAQYQEMEKKVSLLKDNSSLEFDSEMVEMAQKLGAALQVGEALVWTKPVKDPKSKHQTTSTSKPASFQQPLGSNQALGQAMSSAAAYRTLPSGAGGTSQFTKPPSLPLEPEPAVESSPTETSEQIREK
partner: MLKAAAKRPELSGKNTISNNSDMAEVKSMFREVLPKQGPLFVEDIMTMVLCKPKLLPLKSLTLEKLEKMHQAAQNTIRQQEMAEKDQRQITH

In this assay the parent is B1. The settings on record: with bbip1_human BBIP1, A8MTZ0.
Consider MAEERVATRTQFPVSTESQKPRQKKAPEFPILEKQNWLIHLHYIRKDYEACKAVIKEQLQETQGLCEYAIYVQALIFRLEGNIQESLELFQTCAVLSPQSADNLKQVARSLFLLGKHKAAIEVYNEAAKLNQKDWEISHNLGVCYIYLKQFNKAQDQLHNALNLNRHDLTYIMLGKIHLLEGDLDKAIEVYKKAVEFSPENTELLTTLGLLYLQLGIYQKAFEHLGNALTYDPTNYKAILAAGSMMQTHGDFDVALTKYRVVACAVPESPPLWNNIGMCFFGKKKYVAAISCLKRANYLAPFDWKILYNLGLVHLTMQQYASAFHFLSEAINFQPKMGELYMLLAVALTNLEDIENAKRAYAEAVHLDKCNPLVNLNYAVLLYNQGEKKNALAQYQEMEKKVSLLKDNSSLEFDSEMVEMAQKLGAALQVGEALVWTKPVKDPKSKHQTTSTSKPASFQQPLGSNQALGQAMSSAAAYRTLPSGAGGTSQFTKPPSLPLEPEPAVESSPTETSEQIREK [A329E], for which the “effect of a mutation on the interaction” value was “with no effect”.
On to MAEERVATRTQFPVSTESQKPRQKKAPEFPILEKQNWLIHLHYIRKDYEACKAVIKEQLQETQGLCEYAIYVQALIFRLEGNIQESLELFQTCAVLSPQSADNLKQVARSLFLLGKHKAAIEVYNEAAKLNQKDWEISHNLGVCYIYLKQFNKAQDQLHNALNLNRHDLTYIMLGKIHLLEGDLDKAIEVYKKAVEFSPENTELLTTLGLLYLQLGIYQKAFEHLGNALTYDPTNYKAILAAGSMMQTHGDFDVALTKYRVVACAVPESPPLWNNIGMCFFGKKKYVAAISCLKRANYLAPFDWKILYNLGLVHLTMQQYASAFHFLSKAINFQPKMGELYMLLAVALTNLEDIENAKRAYAEAVHLDKCNPLVNLNYAVLLYNQGEKKNALAQYQEMEKKVSLLKDNSSLEFDSEMVEMAQKLGAALQVGEALVWTKPVKDPKSKHQTTSTSKPASFQQPLGSNQALGQAMSSAAAYRTLPSGAGGTSQFTKPPSLPLEPEPAVESSPTETSEQIREK [A329K], for which the “effect of a mutation on the interaction” value is “with no effect”.
The entry for MAEERVATRTQFPVSTESQKPRQKKAPEFPILEKQNWLIHLHYIRKDYEACKAVIKEQLQETQGLCEYAIYVQALIFRLEGNIQESLELFQTCAVLSPQSADNLKQVARSLFLLGKHKAAIEVYNEAAKLNQKDWEISHNLGVCYIYLKQFNKAQDQLHNALNLNRHDLTYIMLGKIHLLEGDLDKAIEVYKKAVEFSPENTELLTTLGLLYLQLGIYQKAFEHLGNALTYDPTNYKAILAAGSMMQTHGDFDVALTKYRVVACAVPESPPLWNNIGMCFFGKKKYVAAISCLKRANYLAPFDWKILYNLGLVHLTMQQYASAFHFLSAAANFQPKMGELYMLLAVALTNLEDIENAKRAYAEAVHLDKCNPLVNLNYAVLLYNQGEKKNALAQYQEMEKKVSLLKDNSSLEFDSEMVEMAQKLGAALQVGEALVWTKPVKDPKSKHQTTSTSKPASFQQPLGSNQALGQAMSSAAAYRTLPSGAGGTSQFTKPPSLPLEPEPAVESSPTETSEQIREK [I331A] is “with no effect”.
Take MAEERVATRTQFPVSTESQKPRQKKAPEFPILEKQNWLIHLHYIRKDYEACKAVIKEQLQETQGLCEYAIYVQALIFRLEGNIQESLELFQTCAVLSPQSADNLKQVARSLFLLGKHKAAIEVYNEAAKLNQKDWEISHNLGVCYIYLKQFNKAQDQLHNALNLNRHDLTYIMLGKIHLLEGDLDKAIEVYKKAVEFSPENTELLTTLGLLYLQLGIYQKAFEHLGNALTYDPTNYKAILAAGSMMQTHGDFDVALTKYRVVACAVPESPPLWNNIGMCFFGKKKYVAAISCLKRANYLAPFDWKILYNLGLVHLTMQQYASAFHFTSAAINFQPKMGELYMLLAVALTNLEDIENAKRAYAEAVHLDKCNPLVNLNYAVLLYNQGEKKNALAQYQEMEKKVSLLKDNSSLEFDSEMVEMAQKLGAALQVGEALVWTKPVKDPKSKHQTTSTSKPASFQQPLGSNQALGQAMSSAAAYRTLPSGAGGTSQFTKPPSLPLEPEPAVESSPTETSEQIREK [L327T]: the “effect of a mutation on the interaction” value was “disrupting interaction strength”.
The entry for MAEERVATRTQFPVSTESQKPRQKKAPEFPILEKQNWLIHLHYIRKDYEACKAVIKEQLQETQGLCEYAIYVQALIFRLEGNIQESLELFQTCAVLSPQSADNLKQVARSLFLLGKHKAAIEVYNEAAKLNQKDWEISHNLGVCYIYLKQFNKAQDQLHNALNLNRHDLTYIMLGKIHLLEGDLDKAIEVYKKAVEFSPENTELLTTLGLLYLQLGIYQKAFEHLGNALTYDPTNYKAILAAGSMMQTHGDFDVALTKYRVVACAVPESPPLWNNIGMCFFGKKKYVAAISCLKRANYLAPFDWKILYNLGLVHLTMQQYASAFHFLKAAINFQPKMGELYMLLAVALTNLEDIENAKRAYAEAVHLDKCNPLVNLNYAVLLYNQGEKKNALAQYQEMEKKVSLLKDNSSLEFDSEMVEMAQKLGAALQVGEALVWTKPVKDPKSKHQTTSTSKPASFQQPLGSNQALGQAMSSAAAYRTLPSGAGGTSQFTKPPSLPLEPEPAVESSPTETSEQIREK [S328K] is “with no effect”; for MAEERVATRTQFPVSTESQKPRQKKAPEFPILEKQNWLIHLHYIRKDYEACKAVIKEQLQETQGLCEYAIYVQALIFRLEGNIQESLELFQTCAVLSPQSADNLKQVARSLFLLGKHKAAIEVYNEAAKLNQKDWEISHNLGVCYIYLKQFNKAQDQLHNALNLNRHDLTYIMLGKIHLLEGDLDKAIEVYKKAVEFSPENTELLTTLGLLYLQLGIYQKAFEHLGNALTYDPTNYKAILAAGSMMQTHGDFDVALTKYRVVACAVPESPPLWNNIGMCFFGKKKYVAAISCLKRANYLAPFDWKILYNLGLVHLTMQQYASAFHFLAAAINFQPKMGELYMLLAVALTNLEDIENAKRAYAEAVHLDKCNPLVNLNYAVLLYNQGEKKNALAQYQEMEKKVSLLKDNSSLEFDSEMVEMAQKLGAALQVGEALVWTKPVKDPKSKHQTTSTSKPASFQQPLGSNQALGQAMSSAAAYRTLPSGAGGTSQFTKPPSLPLEPEPAVESSPTETSEQIREK [S328A] it is “with no effect”; for MAEERVATRTQFPVSTESQKPRQKKAPEFPILEKQNWLIHLHYIRKDYEACKAVIKEQLQETQGLCEYAIYVQALIFRLEGNIQESLELFQTCAVLSPQSADNLKQVARSLFLLGKHKAAIEVYNEAAKLNQKDWEISHNLGVCYIYLKQFNKAQDQLHNALNLNRHDLTYIMLGKIHLLEGDLDKAIEVYKKAVEFSPENTELLTTLGLLYLQLGIYQKAFEHLGNALTYDPTNYKAILAAGSMMQTHGDFDVALTKYRVVACAVPESPPLWNNIGMCFFGKKKYVAAISCLKRANYLAPFDWKILYNLGLVHLTMQQYASAFHFLEAAINFQPKMGELYMLLAVALTNLEDIENAKRAYAEAVHLDKCNPLVNLNYAVLLYNQGEKKNALAQYQEMEKKVSLLKDNSSLEFDSEMVEMAQKLGAALQVGEALVWTKPVKDPKSKHQTTSTSKPASFQQPLGSNQALGQAMSSAAAYRTLPSGAGGTSQFTKPPSLPLEPEPAVESSPTETSEQIREK [S328E] it is “with no effect”.
Take MAEERVATRTQFPVSTESQKPRQKKAPEFPILEKQNWLIHLHYIRKDYEACKAVIKEQLQETQGLCEYAIYVQALIFRLEGNIQESLELFQTCAVLSPQSADNLKQVARSLFLLGKHKAAIEVYNEAAKLNQKDWEISHNLGVCYIYLKQFNKAQDQLHNALNLNRHDLTYIMLGKIHLLEGDLDKAIEVYKKAVEFSPENTELLTTLGLLYLQLGIYQKAFEHLGNALTYDPTNYKAILAAGSMMQTHGDFDVALTKYRVVACAVPESPPLWNNIGMCFFGKKKYVAAISCLKRANYLAPFDWKILYNLGLVHLTMQQYASAFHFLSAEINFQPKMGELYMLLAVALTNLEDIENAKRAYAEAVHLDKCNPLVNLNYAVLLYNQGEKKNALAQYQEMEKKVSLLKDNSSLEFDSEMVEMAQKLGAALQVGEALVWTKPVKDPKSKHQTTSTSKPASFQQPLGSNQALGQAMSSAAAYRTLPSGAGGTSQFTKPPSLPLEPEPAVESSPTETSEQIREK [A330E]: the “effect of a mutation on the interaction” value was “with no effect”.
The entry for MAEERVATRTQFPVSTESQKPRQKKAPEFPILEKQNWLIHLHYIRKDYEACKAVIKEQLQETQGLCEYAIYVQALIFRLEGNIQESLELFQTCAVLSPQSADNLKQVARSLFLLGKHKAAIEVYNEAAKLNQKDWEISHNLGVCYIYLKQFNKAQDQLHNALNLNRHDLTYIMLGKIHLLEGDLDKAIEVYKKAVEFSPENTELLTTLGLLYLQLGIYQKAFEHLGNALTYDPTNYKAILAAGSMMQTHGDFDVALTKYRVVACAVPESPPLWNNIGMCFFGKKKYVAAISCLKRANYLAPFDWKILYNLGLVHLTMQQYASAFHFLSAKINFQPKMGELYMLLAVALTNLEDIENAKRAYAEAVHLDKCNPLVNLNYAVLLYNQGEKKNALAQYQEMEKKVSLLKDNSSLEFDSEMVEMAQKLGAALQVGEALVWTKPVKDPKSKHQTTSTSKPASFQQPLGSNQALGQAMSSAAAYRTLPSGAGGTSQFTKPPSLPLEPEPAVESSPTETSEQIREK [A330K] is “with no effect”.
The entry for MAEERVATRTQFPVSTESQKPRQKKAPEFPILEKQNWLIHLHYIRKDYEACKAVIKEQLQETQGLCEYAIYVQALIFRLEGNIQESLELFQTCAVLSPQSADNLKQVARSLFLLGKHKAAIEVYNEAAKLNQKDWEISHNLGVCYIYLKQFNKAQDQLHNALNLNRHDLTYIMLGKIHLLEGDLDKAIEVYKKAVEFSPENTELLTTLGLLYLQLGIYQKAFEHLGNALTYDPTNYKAILAAGSMMQTHGDFDVALTKYRVVACAVPESPPLWNNIGMCFFGKKKYVAAISCLKRANYLAPFDWKILYNLGLVHLTMQQYASAFHFLSAFINFQPKMGELYMLLAVALTNLEDIENAKRAYAEAVHLDKCNPLVNLNYAVLLYNQGEKKNALAQYQEMEKKVSLLKDNSSLEFDSEMVEMAQKLGAALQVGEALVWTKPVKDPKSKHQTTSTSKPASFQQPLGSNQALGQAMSSAAAYRTLPSGAGGTSQFTKPPSLPLEPEPAVESSPTETSEQIREK [A330F] is “disrupting interaction strength”; for MAEERVATRTQFPVSTESQKPRQKKAPEFPILEKQNWLIHLHYIRKDYEACKAVIKEQLQETQGLCEYAIYVQALIFRLEGNIQESLELFQTCAVLSPQSADNLKQVARSLFLLGKHKAAIEVYNEAAKLNQKDWEISHNLGVCYIYLKQFNKAQDQLHNALNLNRHDLTYIMLGKIHLLEGDLDKAIEVYKKAVEFSPENTELLTTLGLLYLQLGIYQKAFEHLGNALTYDPTNYKAILAAGSMMQTHGDFDVALTKYRVVACAVPESPPLWNNIGMCFFGKKKYVAAISCLKRANYLAPFDWKILYNLGLVHLTMQQYASAFHFLSAVINFQPKMGELYMLLAVALTNLEDIENAKRAYAEAVHLDKCNPLVNLNYAVLLYNQGEKKNALAQYQEMEKKVSLLKDNSSLEFDSEMVEMAQKLGAALQVGEALVWTKPVKDPKSKHQTTSTSKPASFQQPLGSNQALGQAMSSAAAYRTLPSGAGGTSQFTKPPSLPLEPEPAVESSPTETSEQIREK [A330V] it is “disrupting interaction strength”.
